The data set in a line: soluble on expression in E. coli; label from the status in PepcDB or PDB records.
As for “MSLVTVSDVKQYHFCKAIPWINYVMGYREPSTFSMEEGKKISYEEVVKSLNLTTPVKYEVCLSYNGLSGCIDILAGDRKYTVVEVKAFKRGNFSHFRYQLLAYAYLVRKRLGIVERAILVMEGKKVLEIEPTEEHYRYIENVVKKIEEIVNSEKLPAVNVEKCDFCQYRRICPVSVWSEGHHHHHH”, the “soluble on expression in E. coli” value is given as “soluble”. To “MSLWKNTIHSISSNLSLKNPATKDELTDIQKCLHVELPNDLYQLLQETNGIEGEYGDFIWSASKIKTENMSMRNIVDFKDLYMPFDCLLFFADGGNGDLFGYSILNGKVQRDDIYVWNHENDSRTWVALSLKTFMEWWESGKITIEGHHHHHH” belongs “soluble”; to “MSLWLQISNARIVCEDHLVEAGLAICDGLIDCFEQGGTSKAEAIDFDGDFLLPGLIDLHTDSVEHFMQPRPGVQWPSPLAAVLAHDWQLLGSGITTVLDALALGDYDSGGTRTAMLNDAIDGLTQARASGLLKTDHYFHFRCELSDPALLPIVERHVDNPGLRLISMMDHTPGQRQWHNLTLYREFRRKKNARVWNEEEFALHLAERREHQQQYVPPGRSTIGHLCRERDIRIASHDDTAAADVDESRGDGITISEFPTTVEAASRARELGMKIVMGSPNIILGGSHSGNVSALELADRGLLDVLTSDYVPGSLLHAAFALAAKGFDLPEAVAMVTKTPADLLGFSDRGRIAPGLRADLIRVRLVEGVPVIRNIWVAGRQYLEGHHHHHH”, “not soluble”.

Take “MSMFGKVAADVLGLSDIGSVIQPKDYDKVDADDYVMHEDGEKIYFLIKSKSDEYCFTNRALIHLDGTSAASKKRTLRRYDYYKHPISDVSLETAGTVDLDAEIKFKIGPHSYSIDVHKKHIEELKDLYKSLLAIAEICHENEMKFHYAERSLELATKVFANMRGDGANVSADFQAVNEYAFRWLTEAKKNYTVKDFGFVFDKYIQQ”: the “soluble on expression in E. coli” value is given as “not soluble”. In the case of “MSNAIEINELHWLLAVTQNIDVGIVVLDLNYRVTVWNTFMENRSGVVPYVAIDKTFFELFPEVNRQWLSKKIDNVVTLGTPAFTIWEQRPYLVRFKNYQPITGHEEFMYQNTTLFPLRSTTGAISHVCLVIYDVTDVAANRN” it was “not soluble”. As to “MSNAPLMPKATAVWLLDNTALTFDQVADFTKMHVLEVKAIADGDAAQGIKGMDPISTGQLTRDEIEKGEGDPDYRLKLAESKVVLPQAAKKKGPRYTPVSRRHERPSAILWLVRNHPELKDAQIMRLVGTTKTTIASVRDRTHWNAATLTPMDPVTLGLCSQLDLDFEVQRAAKEKPIDQQYGGATLLPASETTRKEAEFEAATSGKSQEDLDVDAVFAKLKTIGGKKHDDEDEDGGFLEHHHHHH”, the “soluble on expression in E. coli” value is reported as “soluble”.

Consider “MSNDETVEKVTQQVSELKSTDVKEQVVTPWDVEGGVDEQGRAQNIDYDKLIKQFGTKPVNEETLKRFKQVTGREPHHFLRKGLFFSERDFTKILDLYEQGKPFFLYTGRGPSSDSMHLGHMIPFVFTKWLQEVFDVPLVIELTDDEKFLFKHKLTINDVKNFARENAKDIIAVGFDPKNTFIFSDLQYMGGAFYETVVRVSRQITGSTAKAVFGFNDSDCIGKFHFASIQIATAFPSSFPNVLGLPDKTPCLIPCAIDQDPYFRVCRDVADKLKYSKPALLHSRFFPALQGSTTKMSASDDTTAIFMTDTPKQIQKKINKYAFSGGQVSADLHRELGGNPDVDVAYQYLSFFKDDDVFLKECYDKYKSGELLSGEMKKLCIETLQEFVKAFQERRAQVDEETLDKFMVPHKLVWGEKERLVAPKPKTKQEKKHHHHHH”, for which the “soluble on expression in E. coli” value is given as “soluble”. On to “MSNKEYRPTLAQLRTFATIAENKHFGTAAAKLSISQPSLSQALAALENGLGVQLIERSTRRVIVTPAGEMLLPYAKATLDAADAFLAHAH”, for which the “soluble on expression in E. coli” value is listed as “soluble”. As to “MSNLLGPRDANGIPVPMTVDESIASMKASLLKKIKRSAYVYRVDCGGCNGCEIEIFATLSPLFDAERFGIKVVPSPRHADILLFTGAVTRAMRSPALRAWQSAPDPKICISYGACGNSGGIFHDLYCVWGGTDKIVPVDVYIPGCPPTPAATLYGFAMALGLLEQKIHARGPGELDEQPAEILHGDMVQPLRVKVDREARRLAGYRYGRQIADDYLTQLGQGEEQVARWLEAENDPRLNEIVSHLNHVVEEARIRLEHHHHHH”, the “soluble on expression in E. coli” value is listed as “not soluble”. In the case of “MSNQRSSLKHLNTFALPAYASNVISAGSVETLIAAWHESKAKRQPVLLLGEGSNVLFIKNFSGTVLLNRIMGITSTEDSAAWYLHVGAGENWHQLVCHSLQNNMPGLENLALIPGCVGSAPIQNIGAYGVELKQVCEYVDLLDMDKGTIQRISAEECQFGYRDSIFKHRYGNGFAIVSVGIKLMKSWTPTLGYGDLIHMDPLTVTATDIFNSVCTMRRSKLPDPMVTGNAGSFFKNPVVSAAIAEEIVHCYPNAPHYLQPDGSVKLAAGWLIDQCSLKGYQIGGAAVHQQQALVLINQSEATGQDVIHLARYIRQQVAQRFSIWLEPEVRFIADNGEVNAVEHLS” it was “not soluble”; in that of “MSNSTEPALAIITVTYSPGKHLGAFLSSVKEATAQPTYVVLADNGSVDGVPEAAAQADPSVEFFPTGGNIGYGSAINAAVRKLAPLRESGKINAEFFVLSNPDVVFEPGSIDAMVQCASRHPQAADIGPYIRQSDGSAYPSARQVPTIKNGVGHALFSSVWPSNPWSRAYRDNRDMTTERTAGWLSGSCLLVRWDAFEQIGGFDERYFMYMEDVDLGDRFGRAGFDNVFCPDAVITHAVGHAAGKHPEKMLPAHHDSAYRFQADRHPGLRYLPLRVLLRVGLKLRAVVAVAAAKFKLEHHHHHH”, “soluble”. In the case of “MSNWPYPHIVAHRGGGKLAPENTLAAIDVGARYGHTMIEFDAKLSKDGEIFLLHDDNLERTSNGWGVAGELNWQDLLRVDAGGWFSGEFKGEPLPLLSQVAERCRKHGMMANIEIKPTTGSGRLTGRVVALAARELWAGMTPPLLSSFEIEALEAAQAAAPELPRGLLLDKWREDWRELTTRLGCVSLHLNHKLLDETRVQEIKAAGLRILVYTVNQPQRAAELLRWGVDCICTDRIDDIGPHFQF” it was “not soluble”; in that of “MSNYTVKIKNSAKSDLKKIKHSYLKKSFLEIVETLKNDPYKITQSFEKLEPKYLERYSRRINHQHRVVYTVDDRNKEVLILSAWSHYD”, “not soluble”. In the case of “MSPAPSRPFSVLRANDVLWLSLTAAEYDQSTYGSSTGPVYVSDSVTLVNVATGAQAVARSLDWTKVTLDGRPLSTIQQHSKTFFVLPLRGKLSFWEAGTTKAGYPYNYNTTASDQLLVENAAGHRVAISTYTTSLGAGPVSISAVAVLA” it was “soluble”; in that of “MSPLPPPPDIQHEFDKNQDPHETNLALRRLYPQIRERENERHIPRRWDLRQASSYLDISQSGYGVTFKKNVTVAEDKDPAGVVRADAFIQQCIGVYYFEVRILEGHSGCMGIGLSKKDCDLNRMPGWDPGCFGYHGDDGNFFLASGVGQAYGPKFGPGDVIGCGIDTFYHYVFFTKNGKHLGIAHTSPTALKELYPTVGFKTRGEKLVANFGVKPFEFDFEAYRQHLMNKKIHLLENIKMPENFGKQMNRIVSSFLGTTGALATLQKFEETTKPEVPIDHEYYAQRKEITDMILKAARGAEIHEKIEKYFPGLVEDDANVHLLILCLRYIDLANTLHEPPNCFTNSTTGRSPSPTEIRARPPKLLKGSQCKTTKRTREAQRRSANSQVHTPPPVRLTNAKATEELYLKDAKIERFYIDQDTEEEMLHIDGVSMPTKMFVELEKSGQYRKLNYILKMGREIMKVAGEMRGNIAPEARKVVEIATSMVSSPERPAKHPLSFALRRFIANSVVDMICYYVHHKREGKSTKRPRGTSTGEIPGSSSLRMFSELRNLFTGWKGLHIDYSTNDKKMAGIHFVRKMILEEPNFNEKEIIYTDEPMELAHERPDPPPREIIRQQRNEFQF”, “not soluble”. “MSPSKLSNDETPPDLDFRFTGIKQRLIKSENVKQVTASWKRLLVEINKEFTEIAKIGPSYVPKCDFIDIKDNKLPQQVSELFKQRGCLMIENVIDVDRIDIWFNELVEFCKTHPETAGYTFPNPTSWYNVFWSKPQTEARFHPNIKAIFKAMSKEFYVEDKENCLIDLDTQLVYGDRIRIREPGKAAALPLHLDSSSIERWEDIMYSEVYKSIFEGDWENWDAFKLDERTYSKENLYKDEDDTGGKSTICSSFRTLQGWLALSNNKSGEGTLRVLPSLKLSMAYIMLRPFFWKDPESGNIDDYEIDMITPKFPGTVPGTGQLFLDKFYPHLHQGIISIPDVKKGSFVFWHCDLPHEVDREHNGNGHSSVLYYGQTPLSITNIQTLLDTRDAFLKNISPADYRSQLNEEEKQKEFQGANIDDLKNDIDSKRSMGLEEFEIPENMSGGQAKIRSIANQALKTGGFNVDKYIHHAAK”: the “soluble on expression in E. coli” value was “soluble”. In the case of “MSQGLPLREDVPVSETWDLVDLFKDDQQYYESIDALVQQANQFHHTYATTLNSIEQINTALAELENILIALDRLSNYAELRLSVDTSNIEAQVLSAKLSTTYGKIVSQLSFVESEILELPEEILQQLEESCPYQHYIKQLIKQKPFQLSASVEQVLATLSPTLNSPYDLYGTTKMLDITFDSFEHDGTTYPVDYATFENDYEDNKDPEFRRKSFKSFSDGIRKYQHTTAATYNMQVQQEKIEADLRGFESVIDYLLHSQEVTRDMFDRQIDMIMRDLAPVMQKYAKLLQRIHGLDNMRFEDLKISVDPDYEPEISIEDSKNYIFGALSVLGDDYTNMLREAYDQRWIDFAQNKGKDTGAFCASPYFTHSYVFISWTGKMAEAFVLAHELGHAGHFTLAQKHQPYLESEASMYFVEAPSTMNEMLMANYLFNTSDNPRFKRWIIGSILSRTYYHNMVTHLLEAAYQREVYHKVDQGESLNAPTLNEIMLNVYKQFFGDAVDMTEGAELTWMRQPHYYMGLYSYTYSAGLTIGTVVSQKIKNEGQPAVDAWLETLKKGGSVSPVELANIAGVDITTEQPLKSTIQYISDLVDEVEKLTDEIEQANN”, the “soluble on expression in E. coli” value was “soluble”. In the case of “MSQGVEFNRLMLDMRAMQADAMSLPKVTAAPELAPGQSTFADMLGQAIGKVHETQQASTQLANAFEIGKSGVDLTDVMIASQKASVSMQAMTQVRNKLVQAYQDIMQMPV” it was “not soluble”; in that of “MSQKTDAPLESYEVNGATIAVLPEEIDGKICSKIIEKDCVFYVNMKPLQIVDRSCRFFGSSYAGRKAGTYEVTKISHKPPIMVDPSNQIFLFPTLSSTRPQCGWISHVHVKEFKATEFDDTEVTFSNGKTMELPISYNSFENQVYRTAWLRTKFQDRIDHRVPKRQEFMLYPKEERTKMIYDFILRELGERYLEHHHHHH”, “not soluble”; in that of “MSQSSDASEKEKPKEKKSQEELEKELDKELKKGGEPKTKKDDQIHKIGETFKAGHTNFTVNKVDRVQKGEYMNVGGAVNEETKTIKDDEERLIIEVTMENIGEDSISYNFIGFDLRDKNDQSVRPVFSIEEKGRILMGGTLVSGKKVTGVLSYVIPKGEQKHYTLVYNPFLADTNSSNTEERVKDDIDYLVKLDLEHHHHHH”, “soluble”. Turning to “MSQTRTHEQVLAKEPWYHGLLPREDMKQLLTQRGDFLVRFTDPKVGEPRKFVLSVYVGVIEDIRHYVIREHNNKFAVDKKWFSSIADLLNYYHRSKEPVAGGPETVIIRPIGREPWEKQHSDVTLIKKLGEGAFGEVQLGEIRIGNTVKKAAIKLAKLESLTKEQIKEIMHEARLMRKFKHPNVVTFYGVAAGQEPLMVIMELADNGALDSYLKKNIGSLPISKKHTMVLQAGLGLEYLHSLQIIHRDIASRNCLYGNGQVKISDFGLSREGYSYRMNPHKKVPIRWLAPEVPRTGFYTPKTDVFAYGVMCWEVYHDGIEPYPGMKVAEVLPRVQNGYRMPFEANVPPAIVRFITYRICAGAEEERVTMSEAVRELLTLEGFDQAPGSNSYFELPDHIPMENIEQPKKIQVSNILPYMSKPVAPPFEPERQEKTQEMRKSMSNSAEEGVKKNRRPVRTRIRNGNSPSPGFKSQSRSAAENQNKSNLKAVQKKKNNKQSSSISGDAPSTFSVLGVFGKKKNTADRSDLKKLEEF”, the “soluble on expression in E. coli” value is reported as “not soluble”.

These data come from the DeepSol protein solubility set.
